One experiment addresses T1, mouse PD-1 (mouse, UniProt Q02242 25-169, limits assumed).
T1 sequence (looked up): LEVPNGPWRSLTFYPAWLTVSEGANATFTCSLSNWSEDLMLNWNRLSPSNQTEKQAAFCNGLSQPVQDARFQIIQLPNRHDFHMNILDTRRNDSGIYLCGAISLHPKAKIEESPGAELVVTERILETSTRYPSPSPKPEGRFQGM
Nature of the experiment: assays not detailed.

The target of experiment [1] is T2, human PD-1 extracellular domain fused with human Fc tag (hPD-1-hFc) (human).
T2 construct: also called human PD-1-hFc
Put plainly: ELISA on coated PD1-hFc. The method, then: (§1) ELISA binding analysis was conducted based on human PD-1-hFc Protein. 96-well plates (Costar, Cat No:9018) were coated with 100 μL of 2 μg/ml PD1-hFc (CrownBio) in coating buffer (PBS, Hyclone, Cat No:SH30256.01B) overnight at 4° C. The wells were aspirated and non-specific binding sites were blocked by adding 200 μL of blocking buffer with 1% (w/v) of bovine serum albumin (BSA, Roche, Cat No: 738328) and incubating for 1 hour at 37° C. After the plates are washed three times with wash buffer (PBS with 0.05%(v/v) Tween20 (Sigma, Cat No:P1379), 100 μL/well of a suitable dilutions of hybridoma supernatant in blocking buffer were added and incubated at room temperature for 1 hour. The plates were washed and incubated with 100 μL/well of Goat anti-Mouse IgG (H+L) (Thermo, Cat No: 31432) in blocking buffer for 60 min. After the plates were washed, 100 μL/well of substrate solution (TMB(eBioscience, Cat No:00-4201-56) was added and the plates were incubated for 2min at room temperature. 100 μL/well of stop solution (2N H2SO4) was added to stop the reaction. The colorimetric signals were developed and read at 450 nm using a Auto Plate SpectraMax Plus (Supplier: Molecular Devices; Model: MNR0643; Software: SoftMax Pro v5.4).
(§2) The purified hybridoma antibodies were characterized further based on ELISA and FACS analyses.
For orientation: ELISA stands for enzyme-linked immunosorbent assay.

Experiment [2] addresses T2, human PD-1 extracellular domain fused …. Put plainly: ELISA binding (summary table). As to the method: as §1, §2
For experiment [3], the target named is T3, human PD-1 (construct not stated) (human, UniProt Q15116 25-167, limits assumed).
T3 construct: also called PD-1 analyte
Put plainly: Biacore, antibody captured, PD-1 analyte. As to the method: (§3) To further characterize the binding characteristics of the antibodies, 10 hybridoma antibodies were profiled using Biacore (Biacore 3000, GE) to elucidate binding kinetics and calculate equilibrium binding constants. This assay was performed by capture method, using the mouse antibody capture kit (BR-1008-38, GE). After diluting anti-mouse Fc mab to 25 μg/ml in pH 5.0 immobilization buffer, immobilization was conducted with the parameters shown in Table 6 at a flow rate of 5 μl/min. The kinetic runs were done by 1) injecting ligand for typical 0.5-1 min at flow rate of 10 μl/min.; 2) injecting analytes of choice for typical 3 min followed by dissociation in running buffer (1× PBS-P20) for typical 5-10 min at flow rate of 30 μl/min.; and 3) injecting regeneration solution 10 mM Glycine pH1.7 for typical 1-2 min at flow rate of 10 μl/min.
Background: Surface plasmon resonance follows binding to a sensor surface in real time, without labels.

In experiment [4] the target is T3, human PD-1 (construct not stated). Put plainly: Biacore (summary table; unit from Table 7). As to the method:
as §3

In the next experiment the target is T4, human CTLA4 (human, UniProt P16410 36-161, limits assumed).
T4 sequence (looked up): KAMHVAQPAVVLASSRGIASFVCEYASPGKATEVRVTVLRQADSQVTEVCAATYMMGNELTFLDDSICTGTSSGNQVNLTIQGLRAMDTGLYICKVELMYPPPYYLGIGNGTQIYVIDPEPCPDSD
Nature of the experiment: Interaction with CTLA4, ICOS CD28; assay not detailed.

The target of the next experiment is T5, human ICOS (human, UniProt Q9Y6W8 21-140, limits assumed).
T5 sequence (looked up): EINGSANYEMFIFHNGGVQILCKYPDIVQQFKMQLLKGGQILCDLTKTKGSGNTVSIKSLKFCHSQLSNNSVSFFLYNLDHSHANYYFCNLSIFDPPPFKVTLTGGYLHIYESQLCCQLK
Described as above.

In the next experiment the target is human CD28 (human, UniProt P10747 19-152, limits assumed). The description is as above.
Experiment [5] addresses T6, human PD-1 on cells (293T cells transfected with human PD-1) (human, UniProt Q15116 25-288).
T6 construct: whole, on cells; Also used as the target for the functional rows, where PD-1 stands on human T cells
Put plainly: FACS blockage on hPD-1-293T cells, competitor biotin PD-L1. As to the method:
(§4) Various concentrations of the testing hybridoma antibodies were added to the cell suspension and incubated at 4° C. for 60 minutes in 96 well plates. […] Plates were washed 3 times, and mouse anti-biotin PE antibody (Biolgend, cat# 409004) was added. Flow cytometric analyses were performed using a FACS Array.
as §2

Experiment [6] has as its target T6, human PD-1 on cells (293T cells …). Nature of the experiment: FACS blockage on hPD-1-293T cells, competitor biotin PD-L2. As to the method: as §4, §2
Experiment [7] concerns the target T7, human PD-1 extracellular domain fused with mouse Fc (PD-1-mFc) (human, UniProt Q15116 25-170).
T7 construct: extracellular domain; not used because of the label; also called hPD-1-mFc; human PD-1-mouse Fc fusion protein
Put plainly: blockage ELISA, coated PD-1-mFc, competitor PDL-1-mFc-biotin. The method, then:
(§5) PD-1-mFc antigen (CrownBio) was suspended in PBS (Hyclone,Cat No:SH30256.01B) buffer (2 ug/ml, 100 ul/ well) and coated on the 96 well plate (costar, Cat No.:9018) 4° C. overnight. Plates were washed 3 times using washing buffer: PBS+0.05% Tween 20(Sigma, Cat No.:P1379). 200 ul of blocking buffer (PBS+1%BSA(Roche, Cat No.:738328)), was added to each well, incubated at 37° C. for 1 hour, and washed 3 times. Various concentrations (suitable dilutions of hybridoma supernatant in PBS) of the anti-PD-1 Abs were added to the wells (100 μl/well) and incubated at 37° C. for 1 hour. […] Secondary antibody (Avidin HRP eBioscience cat No.:E07418-1632, 1:500, 100 ul/well) was added, incubated at 37 ° C. for 0.5 hour, and washed 3 times. TMB (Sigma, Cat No.: T0440, 100 ul/well) was added, and incubated for 3 min at RT. To stop the reaction, 2N H2SO4 (100 ul/well), was added. The colorimetric signals were developed and read at 450 nm using a Auto Plate SpectraMax Plus (Supplier: Molecular Devices; Model: MNR0643; Software: SoftMax Pro v5.4).
as §2

Experiment [8] has as its target T7, human PD-1 extracellular domain fused …. Put plainly: blockage ELISA, competitor PDL-1-mFc-biotin (summary table; IC50 in ng/ml in Table 2). As to the method:
as §5

The target in experiment [9] is T2, human PD-1 extracellular domain fused …. Nature of the experiment: ELISA on coated PD1-hFc. The method, then: as §1
(§6) Freestyle 293 cells (200 mL at 10⁶/mL) were transfected with 100 μg of each of the chimeric heavy and light chain expression plasmids and cultured for 6 days. The chimeric antibody in the supernatant was then purified with Protein-G column (GE healthcare).
The source holds these as a separate data set.

The target in experiment [10] is T6, human PD-1 on cells (293T cells …). Nature of the experiment: FACS on hPD-1-293T cells. The method, then:
The cells were incubated with the indicated antibody (20 ug/ml with the dilution of ⅕) at 4° C. for 1 h. Cells were washed three times with FACS buffer. A secondary antibody (PE Goat anti-mouse: 1:200; PE mouse anti-human: 1:10) was added to the cells at 100 ul/well, and incubated at 4° C. for 40min. Cells were washed three times with FACS buffer and analyzed by FACS Array.
as §6

Experiment [11] concerns the target T7, human PD-1 extracellular domain fused …. Nature of the experiment: blockage ELISA, coated PD-1-mFc, competitor PDL-1-mFc-biotin. The method, then: as §5, §6
The source holds these as a separate data set.

Experiment [12] deals with T6, human PD-1 on cells (293T cells …). Put plainly: FACS blockage on hPD-1-293T cells, competitor biotin PD-L1. As to the method: as §4, §6
The source holds these as a separate data set.

What is called EC50 is the concentration at which the effect is half-maximal. Read a low EC50 as a more potent agent. Usually Kd stands for the free concentration of one partner at which half of the binding sites on the other are occupied at equilibrium, for simple one-to-one binding. Lower therefore signals tighter binding. Usually koff stands for the rate constant with which the complex falls apart. Read a high koff as a short-lived complex. As a reminder, the kon is the second-order rate constant of association. Low values mean slower complex formation, high ones faster complex formation. For orientation: IC50 means the point on the concentration scale where inhibition reaches its midpoint.

Changes are numbered by the printed parent chain.

T6 sequence (Q15116 25-288): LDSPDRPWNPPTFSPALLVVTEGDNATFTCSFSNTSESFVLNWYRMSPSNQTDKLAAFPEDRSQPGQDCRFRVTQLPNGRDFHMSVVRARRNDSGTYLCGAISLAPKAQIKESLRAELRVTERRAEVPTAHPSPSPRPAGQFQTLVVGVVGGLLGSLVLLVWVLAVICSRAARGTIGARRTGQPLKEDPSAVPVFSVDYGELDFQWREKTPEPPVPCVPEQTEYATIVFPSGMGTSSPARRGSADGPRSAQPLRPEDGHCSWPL
T3 sequence (Q15116 25-167 limits assumed): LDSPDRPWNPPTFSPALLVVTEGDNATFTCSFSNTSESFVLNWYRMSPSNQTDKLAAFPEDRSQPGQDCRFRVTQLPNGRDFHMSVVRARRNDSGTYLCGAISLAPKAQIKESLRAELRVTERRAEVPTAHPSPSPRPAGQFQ
T7 sequence (Q15116 25-170): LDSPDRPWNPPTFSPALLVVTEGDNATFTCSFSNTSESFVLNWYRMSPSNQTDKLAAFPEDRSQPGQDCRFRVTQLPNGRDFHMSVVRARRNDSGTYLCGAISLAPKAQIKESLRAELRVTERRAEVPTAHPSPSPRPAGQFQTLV
T2 sequence (chain, as listed by the source limits assumed): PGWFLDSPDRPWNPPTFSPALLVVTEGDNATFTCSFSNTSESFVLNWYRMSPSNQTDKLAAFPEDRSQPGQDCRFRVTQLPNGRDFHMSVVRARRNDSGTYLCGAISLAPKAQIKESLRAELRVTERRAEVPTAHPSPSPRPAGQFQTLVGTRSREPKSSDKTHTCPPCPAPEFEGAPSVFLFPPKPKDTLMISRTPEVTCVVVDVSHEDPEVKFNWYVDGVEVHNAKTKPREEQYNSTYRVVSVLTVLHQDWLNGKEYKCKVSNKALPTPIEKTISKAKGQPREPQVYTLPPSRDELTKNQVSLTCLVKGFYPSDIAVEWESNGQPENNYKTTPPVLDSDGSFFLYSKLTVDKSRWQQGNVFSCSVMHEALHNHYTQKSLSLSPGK
Chain of human CD28 (P10747 19-152 limits assumed): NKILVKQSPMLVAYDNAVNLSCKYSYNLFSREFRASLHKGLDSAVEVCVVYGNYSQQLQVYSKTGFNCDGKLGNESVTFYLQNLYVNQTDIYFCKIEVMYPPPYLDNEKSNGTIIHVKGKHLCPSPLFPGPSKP

B1: 10D1 murine anti-PD-1 antibody (antibody, V domains shown)
VH: EVKLVESGGGLVKPGGSLKLSCAASGFTFSSYGMSWLRQTPEKRLEWVATMSGGGRDIYYPDSMKGRFTISRDNAKNNLYLQMSSLRSEDTALYYCARQYYDDWFAYWGQGTLVTVSA
VL: DIVLTQTPATLSVTPGDSVSLSCRASQSISNNLHWYQQKSHESPRLLIKYASQSISGIPSRFSGSGSGTDFTLNINSVETEDFGMYFCQQSNSWPLTFGAGTKLELKR
notes: Purified hybridoma antibody; also called 10D1-mIgG1
Turning to B1, the binding result with mouse PD-1, with human CTLA4, with human ICOS and in the experiment with human CD28 was “no binding” each time. Besides, the EC50 in [1] and in experiment [2] was 0.0172 µg/mL throughout. Moreover, the Ka in [3] was 1.6e+10 M⁻¹. Besides, the Kd in [3] and in [4] was 0.0623 nM in each case. The molecule also returned a koff in [3] of 5.24e-05 s⁻¹. This molecule displayed a kon in experiment [3] of 840000 M⁻¹ s⁻¹. Further, the IC50 in experiment [5] is 0.0369 µg/mL; in experiment [6] it was 0.15 µg/mL; in experiment [7], 1.41 µg/mL; in [8], 1.41 µg/mL.

B2: chimeric 7D3-hIgG4 (antibody, V domains shown)
VH: B1 VH with A23G, L37V, M51I, M64V, F68L, A97V
VL: B1 VL with T7S, N32D, A51V, N74S, N92D
notes: Mouse variable regions with human IgG4 constant region
Regarding B2, the EC50 in experiment [9] was 0.0517 µg/mL; in experiment [10], 0.131 µg/mL. This molecule also came in with an IC50 in experiment [11] of 0.948 µg/mL.

B3: chimeric 6E1-hIgG4 (antibody, V domains shown)
VH: B1 VH with L37V, M51I, I58T, P61L, M64V, A97V, T115S, V116N
VL: B1 VL with I29L, N74S, L106M
notes: as for B2
Take B3: the EC50 turned out to be 0.0325 µg/mL in experiment [9] and 0.143 µg/mL in experiment [10]. For the same molecule, the IC50 in [12] stood at 0.054 µg/mL; in [11], 0.869 µg/mL.

B4: 14A6 murine anti-PD-1 antibody (antibody, V domains shown)
VH: DVQLQESGPGLVKPSQSLSLTCTVTGYSITSDYAWNWIRQFPGNQLEWMAYISYSGYTSYNPSLKSRISITRDTSRNQFFLQLNSVTTEDTATYYCARSLDYDYGTMDYWGQGTSVTVSS
VL: QIVLSQSPAILSASPGEKVTMTCRANSSVSSMHWYQQKPGSSPEPWIYAISNLAFGVPARFSGSGSGTSYSLTISRVEAEDAATYFCQQWNSRPPTFGGGTKLEIKR
notes: Purified hybridoma antibody; also called 14A6-mIgG1
For B4, the binding result with mouse PD-1, with human CTLA4, with human ICOS and in the experiment with human CD28 was “no binding” throughout. The EC50 in experiment [1] and in experiment [2] was 0.00707 µg/mL throughout. The same molecule yielded a Ka in experiment [3] of 3.33e+10 M⁻¹. The Kd in experiment [3] and in experiment [4] was 0.03 nM each time. In experiment [3], this molecule yielded a koff of 4.52e-05 s⁻¹. Further, the on-rate (kon) in [3] was found to be 1.51e+06 M⁻¹ s⁻¹. Besides, the IC50 came to 0.0211 µg/mL in [5], 0.092 µg/mL in experiment [6], 0.923 µg/mL in [7] and 0.923 µg/mL in experiment [8].

B5: 5A8 murine anti-PD-1 antibody (antibody, V domains shown)
VH: QVQLQQSGDELVRPGTSVKMSCKAAGYTFTNNWIGWVKQRPGHGLEWIGDFYPGGGYTNYNEKFKGKATLTADTSSSTAYMQLSSLTSEDSAIYYCARGYGTNYWYFDVWGAGTTVTVSS
VL: NIVMTQTPKILFISAGDRVTITCKASQSVSNDVAWYQQKPGQSPKLLIYYAFTRYIGVPDRFTGSGYGTDFTFTISTVQAEDLAVYFCQQDYSSPYTFGGGTKLEIKR
notes: Purified hybridoma antibody; also called 5A8-mIgG1
Turning to B5, the binding result with mouse PD-1, with human CTLA4, with human ICOS and in the experiment with human CD28 was “no binding” each time. The EC50 in [1] and in experiment [2] was 0.0112 µg/mL each time. The Ka in experiment [3] came out at 1.7e+10 M⁻¹. Moreover, the Kd in experiment [3] and in experiment [4] was 0.0587 nM each time. This molecule showed a koff in [3] of 7.55e-05 s⁻¹. The molecule further displayed a kon in experiment [3] of 1.29e+06 M⁻¹ s⁻¹. Further, the IC50 came out at 0.0282 µg/mL in experiment [5], 0.0188 µg/mL in [6], 1.13 µg/mL in experiment [7] and 1.13 µg/mL in experiment [8].

(Values after patent US20170267762A1 (APOLLOMICS, published 2017).)
